Target: Sar (PXO_RS20790) (Xanthomonas oryzae pv. oryzae PXO99A, UniProt A0A0K0GPT9 1-242)
Assay: EMSA

B1: Sar probe (dsDNA)
DNA 1: GGCGTCGAGCGCCAGGC
DNA 2: GCCTGGCGCTCGACGCC
**Q.** Does B1 bind?
**A.** binds

B2: hrpX motif (dsDNA)
DNA 1: GCTGCATACAATCGTGTGCGCCAGCGAGCTCGGCG
DNA 2: CGCCGAGCTCGCTGGCGCACACGATTGTATGCAGC
**Q.** Does B2 bind?
**A.** binds

B3: Sar mutated probe (dsDNA)
DNA 1: GTTCCATCTACTTCACC
DNA 2: GGTGAAGTAGATGGAAC
**Q.** Does B3 bind?
**A.** no binding

B4: hrpG motif (dsDNA)
DNA 1: TTTTGTCCTGGCGTCGGGCGCCAGGCGTCGGCGTC
DNA 2: GACGCCGACGCCTGGCGCCCGACGCCAGGACAAAA
**Q.** Does B4 bind?
**A.** binds
